For orientation: Kd means the free concentration of one partner at which half of the binding sites on the other are occupied at equilibrium, for simple one-to-one binding. High values mean lower affinity, low ones higher affinity.

The chains are these.
T1: Plasmodium falciparum histidine-rich protein II (HRP-II) (Plasmodium falciparum, UniProt P05227 22-332)
T1 construct: Coating antigen of all ELISAs; also called HRP-II protein; MA-HRPII Ag protein
T1 sequence (looked up): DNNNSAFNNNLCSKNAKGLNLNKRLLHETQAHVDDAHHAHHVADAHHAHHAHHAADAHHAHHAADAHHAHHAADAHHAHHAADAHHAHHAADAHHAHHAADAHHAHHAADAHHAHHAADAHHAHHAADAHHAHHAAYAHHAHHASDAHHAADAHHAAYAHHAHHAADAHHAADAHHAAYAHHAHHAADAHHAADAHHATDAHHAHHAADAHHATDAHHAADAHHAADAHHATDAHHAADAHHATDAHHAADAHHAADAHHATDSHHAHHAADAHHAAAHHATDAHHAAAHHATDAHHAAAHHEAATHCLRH

B1: Anti-HRP-II 3R5 monoclonal antibody (recombinant, expressed in CHO cells; WT) (antibody, mouse IgG2b, kappa, V domains shown)
VH: EVQLQQSGPEVVKPGASVKISCKASGSTLTEYYMNWVKQSHGKGLEWIGDLNPINGGTPYQQKFRDKATLTVDKSSNTAYMELRSLTSEDSALYYCTRGAEEYWGQGTTLTVSS
VL: DVVLTQTPLSLSVTIGQPASISCKSSQSIIYSNGKIYINWFQQRPGQSPKRLMYQLSKIDPGIPDRFSGSGSETDFTLKISRVEAEDLGVYYCLQGTYSPNTFGGGTKLEIKR
notes: Mouse IgG; also called Anti-HRP-H3R5; CHO transient-transfected cell supernatant
B2: Mutation 3 (antibody, mouse IgG2b, kappa, V domains shown)
VH: B1 VH with E31Q, P59V, E102M
VL: B1 VL with I38G, I59F, N101M
notes: WT as framework
B3: Mutation 2 (antibody, mouse IgG2b, kappa, V domains shown)
VH: B1 VH
VL: B1 VL with I38L
notes: WT as framework
B4: Mutation 1 (antibody, mouse IgG2b, kappa, V domains shown)
VH: B1 VH with E31D, P59A, E102D
VL: B1 VL with I38L, I59L, N101Q
notes: also called Variant 1
B5: Mutation 1-46 (antibody, mouse IgG2b, kappa, V domains shown)
VH: B1 VH with S27Y, L29I, E31D, L51I, P59A, Q61N, E102D
VL: B1 VL with I30L, N33Q, I38L, L56V, I59L, S99T, N101Q
notes: Mutation 1 as framework
B6: Mutation 1-45 (antibody, mouse IgG2b, kappa, V domains shown)
VH: B1 VH with S27Y, L29I, E31D, P59A, Q61N, R98K, E102D
VL: B1 VL with I30L, N33Q, I38L, I59L, D60E, S99Y, N101Q
notes: Mutation 1 as framework
B7: Mutation 1-39 (antibody, mouse IgG2b, kappa, V domains shown)
VH: B1 VH with S27T, E31D, P59A, R98K, E102D
VL: B1 VL with I29L, I30L, I38L, I59L, D60E, G96A, S99T, N101Q
notes: Mutation 1 as framework
B8: Mutation 1-49 (antibody, mouse IgG2b, kappa, V domains shown)
VH: B1 VH with S27Y, E31D, L51I, N55Q, P59A, Q61N, R98K, E102D
VL: B1 VL with I29L, I30L, N33Q, I38L, L56I, I59L, D60E, G96A, S99T, N101Q
notes: Mutation 1 as framework
B9: Mutation 1-41 (antibody, mouse IgG2b, kappa, V domains shown)
VH: B1 VH with S27Y, E31D, L51V, P59A, R98K, E102D
VL: B1 VL with I30L, I38L, L56V, I59L, D60E, G96A, S99Y, N101Q
notes: Mutation 1 as framework
B10: Mutation 1-37 (antibody, mouse IgG2b, kappa, V domains shown)
VH: B1 VH with S27Y, L29I, E31D, L51I, P59A, R98K, E102D
VL: B1 VL with I29L, I30L, I38L, L56I, I59L, D60E, G96A, S99Y, N101Q
notes: Mutation 1 as framework
B11: Mutation 1-48 (antibody, mouse IgG2b, kappa, V domains shown)
VH: B1 VH with S27Y, L29I, E31D, N55Q, P59A, Q61N, E102D
VL: B1 VL with I29L, I30L, N33Q, I38L, L56I, I59L, S99Y, N101Q
notes: Mutation 1 as framework
B12: Mutation 1-50 (antibody, mouse IgG2b, kappa, V domains shown)
VH: B1 VH with S27Y, L29I, E31D, L51V, N55Q, P59A, E102D
VL: B1 VL with I29L, I30L, I38L, I59L, D60E, G96A, S99Y, N101Q
notes: Mutation 1 as framework
B13: Mutation 1-47 (antibody, mouse IgG2b, kappa, V domains shown)
VH: B1 VH with L29I, E31D, L51V, P59A, Q61N, R98K, E102D
VL: B1 VL with I30L, N33Q, I38L, L56V, I59L, D60E, G96A, N101Q
notes: Mutation 1 as framework
B14: WT 1-4 (antibody, mouse IgG2b, kappa, V domains shown)
VH: B1 VH with S27T, L51V, Q61N, R98K
VL: B1 VL with I29L, N33Q, L56I, D60E, G96A, S99T
notes: WT as framework
B15: WT 1-1 (antibody, mouse IgG2b, kappa, V domains shown)
VH: B1 VH with S27Y, L29I, L51V, R98K
VL: B1 VL with I29L, I30L, L56I, D60E, G96A
notes: WT as framework
B16: WT 1-2 (antibody, mouse IgG2b, kappa, V domains shown)
VH: B1 VH with S27T, L51I, N55Q, Q61N
VL: B1 VL with I30L, N33Q, G96A, S99T
notes: WT as framework
B17: WT 1-3 (antibody, mouse IgG2b, kappa, V domains shown)
VH: B1 VH with L29I, R98K
VL: B1 VL with L56V, D60E, S99Y
notes: WT as framework
B18: WT 1-5 (antibody, mouse IgG2b, kappa, V domains shown)
VH: B1 VH with S27Y, L29I, N55Q
VL: B1 VL with I29L, I30L, N33Q, G96A
notes: WT as framework

Substitutions are numbered along the chain they refer to.

The first test concerns the target T1, Plasmodium falciparum histidine-rich …. Nature of the test: indirect ELISA, coated MA-HRPII Ag 1 ug/ml, antibody 200 ng/ml. On the technique in general: ELISA stands for enzyme-linked immunosorbent assay.
B1: the “OD value at 450 nm (ref 630 nm)” value was 1.97 OD.

For the molecule B2, the “OD value at 450 nm (ref 630 nm)” value turned out to be 0.635 OD.

In the case of B3, the “OD value at 450 nm (ref 630 nm)” value amounted to 2.05 OD.

Take B4: the “OD value at 450 nm (ref 630 nm)” value came to 2.4 OD.

For a further test the target is unchanged. Nature of the test: indirect ELISA, four antigen coating concentrations.
Description: The OD values corresponding to different antibody concentrations with different coating concentrations are obtained. Under the same coating concentration, the antibody concentrations are used as an abscissa, the 00 values are used as an ordinate, and a logarithmic plot is made. […] An average value thereof is taken and a reciprocal thereof is calculated to get the affinity constant KD.
B5 yielded a Kd of 0.0721 nM.

For B6, binding was characterised by a dissociation constant (Kd) of 0.384 nM.

As for B7, the Kd is 0.233 nM.

B8 returned a Kd of 0.0956 nM.

As to B9, the affinity, expressed as Kd, was 0.302 nM.

As for B10, binding was put at a Kd of 0.365 nM.

The molecule B11 had a Kd of 0.333 nM. The Kd values of the last two molecules are within 1.5-fold of each other.

B12 showed a Kd of 0.382 nM.

B13 yielded a Kd of 0.0828 nM.

In turn, B4 showed a Kd of 0.0521 nM. This Kd is about 1.6-fold lower than that of the molecule before.

Another test shares this target. As to the kind of experiment: indirect ELISA, coated MA-HRPII Ag 1 ug/ml, antibody 1.6 ng/ml.
Regarding B1, the “OD value at 450 nm (ref 630 nm)” value stood at 0.053 OD.

Regarding B3, the “OD value at 450 nm (ref 630 nm)” value is 0.101 OD.

Turning to B4, the “OD value at 450 nm (ref 630 nm)” value turned out to be 0.16 OD.

Another test has the same target. Nature of the test: indirect ELISA, coated MA-HRPII Ag 1 ug/ml, antibody 40 ng/ml.
With B1, the “OD value at 450 nm (ref 630 nm)” value amounted to 0.402 OD.

On to B2, for which the “OD value at 450 nm (ref 630 nm)” value came out at 0.032 OD.

In the case of B3, the “OD value at 450 nm (ref 630 nm)” value worked out at 0.551 OD.

As to B4, the “OD value at 450 nm (ref 630 nm)” value was 0.695 OD.

The target is the same in the next test. Nature of the test: indirect ELISA, coated MA-HRPII Ag 1 ug/ml, antibody 8 ng/ml.
B1: the “OD value at 450 nm (ref 630 nm)” value worked out at 0.122 OD.

Consider B3, for which the “OD value at 450 nm (ref 630 nm)” value is 0.189 OD.

With B4, the “OD value at 450 nm (ref 630 nm)” value amounted to 0.288 OD.

The next test has the same target. As to the kind of experiment: indirect ELISA, four antigen coating concentrations. The source holds these as a separate data set.
For B1, the Kd amounted to 0.633 nM.

B14 returned a Kd of 0.582 nM.

Regarding B15, the Kd was found to be 0.521 nM.

As for B16, the dissociation constant (Kd) worked out at 0.0856 nM.

Regarding B17, the dissociation constant (Kd) was 0.0923 nM. This Kd and that of the molecule before are within 1.5-fold of each other.

As for B18, the Kd is 0.311 nM.

For the next test the target is unchanged. Nature of the test: indirect ELISA, coated MA-HRPII Ag 1 ug/ml, antibody 0.32 ng/ml.
On to B1, for which the “OD value at 450 nm (ref 630 nm)” value is 0.058 OD.

B3: the “OD value at 450 nm (ref 630 nm)” value was 0.077 OD.

As to B4, the “OD value at 450 nm (ref 630 nm)” value worked out at 0.089 OD.

For the next test the target is unchanged. Nature of the test: indirect ELISA, coated MA-HRPII Ag 1 ug/ml, antibody 1000 ng/ml.
As to B1, the “OD value at 450 nm (ref 630 nm)” value was determined as 2.34 OD.

Take B2: the “OD value at 450 nm (ref 630 nm)” value is 0.814 OD.

Take B3: the “OD value at 450 nm (ref 630 nm)” value amounted to 2.23 OD.

As for B4, the “OD value at 450 nm (ref 630 nm)” value is 2.52 OD.

A further test shares this target. As to the kind of experiment: indirect ELISA, four antigen coating concentrations. This is another data set of the same source.
Description: The OD values corresponding to different antibody concentrations with different coating concentrations are obtained. Under the same coating concentration, the antibody concentrations are used as an abscissa, the OD values are used as an ordinate, and a logarithmic plot is made. […] An average value thereof is taken and a reciprocal thereof is calculated to get the affinity constant KD.
Regarding B1, the affinity, expressed as Kd, was 0.633 nM.
